Laboratory results: publication PMC8006170

Substrate: NCC(=O)CCC(=O)O
Assay: PbgS activity assay in lysate of overexpressing cells, Michaelis-Menten
Type: biochemical, Acinetobacter baumannii
Conditions: native wt lysate included as control to subtract basal activity

B1: PbgS(wt) (Acinetobacter baumannii ATCC 19606 = CIP 70.34 = JCM 6841) (protein)
chain: MGLQYSSRLTVMEYPPTYPSVIPNIEIVMTYTFNRPAFPATRMRRIRKNDQLRAMVSETQLTTNHLIYPVFVLPGQNQTQDIPSMPNIQRLSADLLLKKAERLLELGVSKLALFPVTPQEDKSLTAEAAWREDGLVQTTCRLLKKELPEMVLITDGALDPYTTHGQDGIIDETGYVLNDETVECLIKQALSHAEAGAEVIAPSDMMDGRIGAIRQALEANGHIYTNIMAYSAKYASSFYGPFRDAVGSASNLKGGNKYNYQMDFANRAEALHEIALDIQEGADMVIVKPGMPYLDVVREVKDTFGIPTFIYQVSGEYAMLAGAIQNGWLSDSVILESLMCCRRAGADGIWTYFAETAAEKLKEMN
**Q.** For B1, which Km is on record?
**A.** Its Km is 153 µM.
